According to PMC11488100, “PET imaging of CXCR4 expression using [^18F]AlF-NOTA-QHY-04 for hematologic malignancy and solid tumors” (Theranostics, 2024):
Bridge positions count the residues as written; N and C are the ends. Square brackets hold non-standard residues; d marks the D form. Peptide text beside a SMILES is read from it. * marks the point of attachment. NOTA = O=C(O)CN1CCN(CC(=O)O)CCN(CC(=O)*)CC1; 2Nal = N[C@@H](Cc1ccc2ccccc2c1)C(=O)O; Pen = CC(C)(S)[C@H](N)C(=O)O; 4Amb = NCc1ccc(C(=O)O)cc1; Ahx = NCCCCCC(=O)O

Legend:
CXCR4 expression = biological target: T1, CXCR4 expression (Homo sapiens, UniProt P61073); conditions: in vivo
T1 construct: from tissue; host or cells: tumour lesions in cancer patients (DLBCL, SCLC, NSCLC, TNBC, pancreatic carcinoma, glioma, HCC, CRC), in vivo
Description: Potential eligible patients with newly diagnosed tumor were recruited from Shandong Cancer Hospital and institute from November 2022 to December 2023. A total of 55 patients including 8 tumor types were represented in this study (diffuse large B-cell lymphoma (DLBCL), n = 6; SCLC, n = 30; non-small cell lung cancer (NSCLC), n = 4; triple-negative breast cancer (TNBC), n = 3; pancreatic carcinoma, n = 3; glioma, n = 7; hepatocellular carcinoma (HCC), n = 1; and colorectal carcinoma (CRC), n = 1). The [^18F]AlF-NOTA-QHY-04 imaging study in patients was approved by the Institutional Review Board of Shandong Cancer Hospital and Institute (no. SDZLEC2023-256-02), and the patients provided their informed consent before inclusion in this study. In this prospective observational study, [^18F]AlF-NOTA-QHY-04 PET/CT scans should not affect the normal process of routine examinations and treatment as usual. Patients were enrolled according to the following criteria: (1) newly diagnosed cancer patients with visible tumors on conventional imaging; (2) histopathologically confirmed diagnosis; (3) age ≥ 18 years; (4) Eastern Cooperative Oncology Group (ECOG) performance status score of 0-2; (5) no prior cancer-directed therapy; (6) ability to undergo [^18F]AlF-NOTA-QHY-04 PET/CT scanning before treatment initiation. Specifically, regarding histological confirmation, we followed the standard clinical practice guidelines for each type of cancer [21]-[26], and provided detailed descriptions of our approach for obtaining histological evidence in the supplemental materials. […]
(§1) NaOH. Finally, the cell lysates were collected and measured by an automatic gamma counter (2470 Wizard2, PerkinElmer). […]
The tumor-bearing mice were injected with 3.70 ± 0.74 MBq of [18F]AlF-NOTA-QHY-04 in about 150 μL saline via the tail vein. […] The PET/CT images were analyzed using OsiriX MD software (Pixmeo SARL, Geneva, Switzerland), and the regions of interest (ROIs) were drawn along the boundary covering the whole tumor volume for quantification of the radioactivity (expressed as %ID/mL). […]

[1] = tested on: NCI-H69 subcutaneous tumor xenografts; set-up: species or system mice; conditions: mouse, in vivo
Procedure: The xenografted mice were injected with [^18F]AlF-NOTA-QHY-04 (3.70 ± 0.74 MBq) in about 150 μL saline via the tail vein. All the PET scans were performed with micro-PET/CT (IRIS PET/CT, Inviscan, France) and the radioactivity were expressed as %ID/mL. Detailed procedures for dynamic, static imaging and blocking studies are provided in the supplemental materials. Biodistribution studies were conducted using mice with xenografted A549/CXCR4 tumors with and without blocking (n = 3). The mice were sacrificed immediately after static PET/CT 1 h post injection (p.i.), then the tumors and organs were quickly collected, weighed and counted for radioactivity by a γ-counter. The γ-counter activity readings were background- and decay-corrected and represented as the percentage of injected dose per gram of tissue (%ID/g).
7.4, 150 mM NaCl, 0.005% tween-20) with continuous shaking at 1000 rpm. Biotinylated CXCR4 was immobilized on Super Streptavidin (SSA) biosensors by immersing the sensors in a protein solution of 35 µg/mL. […]
and 1 μM NOTA-QHY-04 sample) was prepared and flowed. […] Prior to fitting, the data were baseline-subtracted and analyzed using a 1:1 binding model and the ForteBio data analysis software. Mean Kd value was determined by applying a global fit to all the data. […]
as §1

T1 sequence (P61073 whole entry): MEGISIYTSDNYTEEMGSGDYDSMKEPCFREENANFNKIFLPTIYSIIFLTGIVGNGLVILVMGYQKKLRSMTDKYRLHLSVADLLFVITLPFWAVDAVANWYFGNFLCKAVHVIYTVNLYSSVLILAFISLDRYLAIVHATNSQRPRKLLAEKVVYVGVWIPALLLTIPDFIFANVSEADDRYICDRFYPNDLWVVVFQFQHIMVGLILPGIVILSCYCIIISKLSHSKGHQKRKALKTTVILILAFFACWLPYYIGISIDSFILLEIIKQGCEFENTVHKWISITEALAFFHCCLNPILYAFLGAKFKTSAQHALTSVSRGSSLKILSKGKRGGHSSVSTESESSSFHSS

In the case of `C[C@H](NC(=O)[C@H](CCCNC(=N)N)NC(=O)CCCCCNC(=O)c1ccc(CNC(=O)CN2CCN(CC(=O)O)CCN(CC(=O)O)CC2)cc1)C(=O)N[C@@H]1CSSC(C)(C)[C@@H](C(=O)O)NC(=O)[C@H](Cc2c[nH]cn2)NC(=O)[C@H](Cc2ccc3ccccc3c2)NC(=O)[C@H](CCCNC(=N)N)NC1=O` [[^18F]AlF-NOTA-QHY-04] ({NOTA-4Amb-Ahx}-RA[dC]R[2Nal]H[Pen]-OH; disulfide 3-7), the SUVmean (CXCR4 expression) is reported as 7.52 ± 3.01, the “average SUVmax” value (CXCR4 expression) is reported as 6.29 ± 2.85 and the “average T/N (tumor-to-normal brain ratio)” value (CXCR4 expression) is reported as 62.55 ± 43.24. The “time of highest tumor uptake” value [1] was “about 50 min”.
